# US20260234247A1 (published 2026)
# Tests used:
# [1] = target: T1, human LILRB1 expressed on CHOK1 cells (human, UniProt Q8NHL6 24-650); experiment: cell based RBA on CHOK1-hLILRB1 cells, flow cytometry; competitor HLA-G
# T1 construct: whole, on cells; also called CHOK1-hLILRB1; CHOK1-LILRB1
# [2] = target: T2, human LILRB2 expressed on CHOK1 cells (human, UniProt Q8N423 22-597); experiment: flow cytometry (FACS) binding to CHOK1-hLILRB2 cells
# T2 construct: whole, on cells; also called CHOK1-hLILRB2; CHOK1-LILRB2
# T2 sequence (Q8N423 22-597): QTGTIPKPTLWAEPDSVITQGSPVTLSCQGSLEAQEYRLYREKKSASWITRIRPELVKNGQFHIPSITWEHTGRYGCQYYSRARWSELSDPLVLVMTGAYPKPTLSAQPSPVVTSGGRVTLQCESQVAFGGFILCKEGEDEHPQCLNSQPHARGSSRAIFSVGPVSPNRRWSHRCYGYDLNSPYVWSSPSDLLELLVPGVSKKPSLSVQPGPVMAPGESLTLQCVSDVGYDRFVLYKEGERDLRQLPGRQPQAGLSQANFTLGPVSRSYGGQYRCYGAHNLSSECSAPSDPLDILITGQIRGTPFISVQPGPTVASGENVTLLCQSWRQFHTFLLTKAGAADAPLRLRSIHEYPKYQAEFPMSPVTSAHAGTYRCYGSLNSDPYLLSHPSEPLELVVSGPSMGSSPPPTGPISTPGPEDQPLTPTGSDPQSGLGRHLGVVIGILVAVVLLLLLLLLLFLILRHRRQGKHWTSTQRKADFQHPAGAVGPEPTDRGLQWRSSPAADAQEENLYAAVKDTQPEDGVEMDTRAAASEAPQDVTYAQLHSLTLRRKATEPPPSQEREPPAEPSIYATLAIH
# [3] = target: T1, human LILRB1 expressed on CHOK1 cells; experiment: flow cytometry (FACS) binding to CHOK1-hLILRB1 cells
# [4] = target: T2, human LILRB2 expressed on CHOK1 cells; experiment: cell based RBA on CHOK1-hLILRB2 cells, flow cytometry; competitor HLA-G
# human LILRA2-his = target: T3, human LILRA2-his (human, UniProt Q8N149 24-449, limits assumed); experiment: SPR (Biacore 8K), antibody captured via Fc, LILRA2-his as analyte, 1:1 model
# T3 construct: Analyte of the Biacore run; not shown: His tag
# T3 sequence (Q8N149 24-449 limits assumed): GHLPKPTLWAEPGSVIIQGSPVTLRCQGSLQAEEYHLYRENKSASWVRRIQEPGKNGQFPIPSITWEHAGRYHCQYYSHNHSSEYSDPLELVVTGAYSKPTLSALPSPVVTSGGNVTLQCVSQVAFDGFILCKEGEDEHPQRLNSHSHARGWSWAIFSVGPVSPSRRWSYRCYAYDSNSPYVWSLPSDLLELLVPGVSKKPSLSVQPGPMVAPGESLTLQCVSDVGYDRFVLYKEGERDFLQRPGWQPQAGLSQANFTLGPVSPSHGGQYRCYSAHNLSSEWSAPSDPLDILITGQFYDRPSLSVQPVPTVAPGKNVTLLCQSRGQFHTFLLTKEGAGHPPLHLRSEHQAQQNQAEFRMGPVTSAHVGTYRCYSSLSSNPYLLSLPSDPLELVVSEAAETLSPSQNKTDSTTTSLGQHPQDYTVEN
# human LILRB1-his = target: T4, human LILRB1-his (human, UniProt Q8NHL6 24-458, limits assumed); experiment: SPR (Biacore 8K), antibody captured via Fc, LILRB1-his as analyte, 1:1 model
# T4 construct: Analyte of the Biacore run; not shown: His tag
# T4 sequence (Q8NHL6 24-458 limits assumed): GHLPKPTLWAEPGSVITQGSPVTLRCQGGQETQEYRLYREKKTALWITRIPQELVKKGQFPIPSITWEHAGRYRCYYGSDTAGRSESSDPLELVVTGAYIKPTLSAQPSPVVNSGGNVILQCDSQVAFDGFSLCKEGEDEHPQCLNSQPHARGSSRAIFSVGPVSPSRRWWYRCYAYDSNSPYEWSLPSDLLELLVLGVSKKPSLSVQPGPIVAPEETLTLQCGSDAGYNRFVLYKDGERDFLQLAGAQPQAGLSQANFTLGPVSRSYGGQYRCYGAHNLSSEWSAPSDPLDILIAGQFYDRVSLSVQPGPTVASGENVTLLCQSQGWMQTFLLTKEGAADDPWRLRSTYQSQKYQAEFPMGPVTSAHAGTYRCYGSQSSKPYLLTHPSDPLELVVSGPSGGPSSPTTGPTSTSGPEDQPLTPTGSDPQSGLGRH
# [5] = target: T5, Rhesus LILRB1 (F7H3G7) on CHOK1 cells (rhesus macaque); experiment: flow cytometry on CHOK1-rhesus LILRB1 (F7H3G7) cells
# T5 construct: whole, on cells; also called CHOK1-Rhesus LILRB1 (F7H3G7)
# T1 sequence (Q8NHL6 24-650): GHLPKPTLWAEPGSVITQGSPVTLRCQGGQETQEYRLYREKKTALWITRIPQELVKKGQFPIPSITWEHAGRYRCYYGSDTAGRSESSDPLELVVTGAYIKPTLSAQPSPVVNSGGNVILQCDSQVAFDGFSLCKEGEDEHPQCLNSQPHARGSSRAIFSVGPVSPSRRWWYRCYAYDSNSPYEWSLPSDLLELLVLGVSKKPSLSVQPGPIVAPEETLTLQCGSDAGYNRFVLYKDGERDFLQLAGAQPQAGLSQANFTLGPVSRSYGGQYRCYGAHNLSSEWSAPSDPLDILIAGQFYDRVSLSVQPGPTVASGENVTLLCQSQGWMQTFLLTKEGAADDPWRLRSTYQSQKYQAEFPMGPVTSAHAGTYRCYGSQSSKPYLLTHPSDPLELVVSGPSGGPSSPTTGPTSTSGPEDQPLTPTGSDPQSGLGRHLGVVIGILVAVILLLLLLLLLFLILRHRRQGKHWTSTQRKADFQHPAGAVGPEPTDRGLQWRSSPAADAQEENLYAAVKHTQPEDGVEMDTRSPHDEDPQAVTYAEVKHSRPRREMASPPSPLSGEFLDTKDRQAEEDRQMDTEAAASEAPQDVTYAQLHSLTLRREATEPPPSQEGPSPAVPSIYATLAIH
Binder,EC50 [1] [µg/mL],EC50 [2] [nM],EC50 [3] [nM],EC50 [4] [µg/mL],further results
"LK-RBi-10 (bispecific antibody, human IgG4 S228P, kappa) heavy: not shown light: EIVLTQSPATLSLSPGERATLSCRASQSISDYLHWYQQKPGQAPRLLIKYASQSISGIPSRFSGSGSGTDFTLTISSLEPEDVAVYYCQNGHSFPYTFGGGTKLEIKGGSGGGGSGDIQMTQSPSSLSASVGDRVTITCETSENIYGALNWYQQKPGKAPKLLIYGATNLAEGVPSRFSGSGSGTDFTFTISSLQPEDIATYYCQNVLNTPWTFGGGTKLEIKRTVAAPSVFIFPPSDEQLKSGTASVVCLLNNFYPREAKVQWKVDNALQSGNSQESVTEQDSKDSTYSLSSTLTLSKADYEKHKVYACEVTHQGLSSPVTKSFNRGEC",0.91,1.06,2.21,0.5,–
"LK-RBi-01 (bispecific antibody, human IgG4 S228P, kappa) heavy: not shown light: DIQMTQSPSSLSASVGDRVTITCETSENIYGALNWYQQKPGKAPKLLIYGATNLAEGVPSRFSGSGSGTDFTFTISSLQPEDIATYYCQNVLNTPWTFGGGTKLEIKRTVAAPSVFIFPPSDEQLKSGTASVVCLLNNFYPREAKVQWKVDNALQSGNSQESVTEQDSKDSTYSLSSTLTLSKADYEKHKVYACEVTHQGLSSPVTKSFNRGEC",1.4,0.8,7.15,0.38,–
"LK-RBi-02 (bispecific antibody, human IgG4 S228P, kappa) heavy: not shown light: DIQMTQSPSSLSASVGDRVTITCETSENIYGALNWYQQKPGKAPKLLIYGATNLAEGVPSRFSGSGSGTDFTFTISSLQPEDIATYYCQNVLNTPWTFGGGTKLEIKRTVAAPSVFIFPPSDEQLKSGTASVVCLLNNFYPREAKVQWKVDNALQSGNSQESVTEQDSKDSTYSLSSTLTLSKADYEKHKVYACEVTHQGLSSPVTKSFNRGEC",2.12,1.25,1.27,0.19,–
"15G8 (antibody, human IgG4 S228P, kappa, V domains shown) VH: DVQLQGSGPGLVKPSETLSLTCSVTGYSITSGYYWNWIRQFPGKKLEWMGYISYDGSNNYNPSLKNRITISRDTSKNQFSLKLNSVTAADTATYYCAHGYSYYYAMDAWGQGTSVTVSS VL: DIQMTQSPSSLSASVGDRVTITCRTSQDISNYLNWYQQKPGKAVKLLISYTSRLHSGVPSRFSGSGSGTDYTLTISSLQPEDFATYYCQQGNTLPTFGQGTKLEIKR",2.05,–,1.17,–,binding result [2]: no binding
"hz73D1.v1 (antibody, human IgG4 S228P, kappa, V domains shown) VH: QVQLVQSGAEVKKPGASVKVSCKASGYTFTDYYINWVRQAPGQGLEWMGNVNPNDGGTTYNQKFKGRVTMTTDTSTSTAYMELRSLRSDDTAVYYCARREIYFYGTIYYYAMDYWGQGTLVTVSS VL: DIQLTQSPSFLSASVGDRVTITCRASESVDYYGNSFMYWYQQKPGKAPKLLIYFASNLESGVPSRFSGSGSGTEFTLTISSLQPEDFATYYCQQNNEDPWTFGGGTKVEIKR",7.26,1.4,5.37,1.46,–
"LK-RBi-11 (bispecific antibody, human IgG4 S228P, kappa) heavy: not shown light: DIQMTQSPSTLSASVGDRVTITCHASQSVDFWLNWYQQKPGKAPKLLISKASNLHTGVPSRFSGSGSGTEFTLTISSLQPDDFATYYCQQGQSYPLTFGQGTKLEIKGGSGGGGSGDIQMTQSPSSVSASVGDRVTITCRASENIYSNLAWYQQKPGKAPKLLIYAATNLAEGVPSRFSGSGSGTDYTLTISSLQPEDFATYYCQQFWDNPLTFGQGTKLEIKRTVAAPSVFIFPPSDEQLKSGTASVVCLLNNFYPREAKVQWKVDNALQSGNSQESVTEQDSKDSTYSLSSTLTLSKADYEKHKVYACEVTHQGLSSPVTKSFNRGEC",4.37,2.22,2.31,2.49,–
"LK-RB1-9.h2 (antibody, human IgG4, kappa, V domains shown, Humanized form of LK-RB1-9) VH: QVQLVQSGSELKKPGASVKVSCTASGYTFTTYGMSWVRQAPGQGLKWMGWINTYSGVPTYADDFKGRFVFSLDTSVSTAYLQISSLKAEDTAVYFCARRRRTYHGYLSFDYWGQGTTVTVSS VL: DIQMTQSPSSLSASVGDRVTITCETSENIYGALNWYQQKPGKAPKLLIYGATNLAEGVPSRFSGSGSGTDYTFTISSLQPEDIATYYCQNVLNTPWTFGGGTKLEIKR",–,–,–,–,Kd (human LILRA2-his): 6.97 nM; koff (human LILRA2-his): 0.00132 s⁻¹; kon (human LILRA2-his): 189000 M⁻¹ s⁻¹; Kd (human LILRB1-his): 0.927 nM; koff (human LILRB1-his): 0.000224 s⁻¹; kon (human LILRB1-his): 241000 M⁻¹ s⁻¹
"LK-RB1-9.h1 (antibody, human IgG4, kappa, V domains shown, Humanized form of LK-RB1-9) VH: QVQLVQSGSELKKPGASVKVSCKASGYTFTTYGMSWVRQAPGQGLEWMGWINTYSGVPTYADDFKGRFVFSLDTSVSTAYLQISSLKAEDTAVYYCARRRRTYHGYLSFDYWGQGTTVTVSS VL: DIQMTQSPSSLSASVGDRVTITCETSENIYGALNWYQQKPGKAPKLLIYGATNLAEGVPSRFSGSGSGTDFTFTISSLQPEDIATYYCQNVLNTPWTFGGGTKLEIKR",–,–,–,–,Kd (human LILRA2-his): 10.4 nM; koff (human LILRA2-his): 0.00219 s⁻¹; kon (human LILRA2-his): 210000 M⁻¹ s⁻¹; Kd (human LILRB1-his): 0.825 nM; koff (human LILRB1-his): 0.000209 s⁻¹; kon (human LILRB1-his): 253000 M⁻¹ s⁻¹
"LK-RB1-9.h3 (antibody, human IgG4, kappa, V domains shown, Humanized form of LK-RB1-9) VH: QVQLVQSGSELKKPGASVKVSCTASGYTFTTYGMSWVKQAPGQGLKWMGWINTYSGVPTYADDFKGRFVFSLDTSVSTAYLQISSLKAEDTAVYFCARRRRTYHGYLSFDYWGQGTTVTVSS VL: DIQMTQSPSSLSASVGDRVTITCETSENIYGALNWYQQKPGKAPKLLIYGATNLAEGVPSRFSGSGSGTDYTFTISSLQPEDIATYYCQNVLNTPWTFGGGTKLEIKR",–,–,–,–,Kd (human LILRA2-his): 6.77 nM; koff (human LILRA2-his): 0.00126 s⁻¹; kon (human LILRA2-his): 186000 M⁻¹ s⁻¹; Kd (human LILRB1-his): 0.497 nM; koff (human LILRB1-his): 0.000115 s⁻¹; kon (human LILRB1-his): 232000 M⁻¹ s⁻¹
"J19.h1 (antibody, human IgG4 S228P, kappa, V domains shown) VH: QITLKESGPTLVKPTQTLTLTCTFSGFSLNTYAMGVSWIRQPPGKALEWLASIWWNGNKYNNPSLKSRLTVTKDTSKNQVVLTMTNMDPVDTATYYCAHSRIIRFTDYVMDAWGQGTLVTVSS VL: DIQMTQSPSSLSTSVGDRVTITCRASEDIYNDLAWYQQKPGKAPKLLIYNANSLHTGVASRFSGSGSGTDFTFTISSLQPEDVATYFCQQYYDYPLTFGQGTKLEIKR",–,0.27,–,0.46,binding result [3]: no binding
"LK-RB1-50 (antibody, human IgG4 S228P, kappa, V domains shown, Anti-LILRB1 antibody) VH: QVQLKQSGPGLVQPSQSLSITCTVSGFSLTSYGVHWVRQSPGKGLEWLGVIWRGGNTDYNAPFVSRLSITKDNSQSQVFFKMNSLEADDTAIYYCAKNSLDVYSSWYFDVWGTGTTVTVSS VL: QIVLSQSPAILSAFPGEKVTMTCRASSSVSFMHWYQQKPGSSPKPWIYATSNLASGVPARFSGSGSGTSYSLTISRVEAEDAATYYCQQWSSNPLTFGAGTKLELKR",–,–,–,–,EC50 [5]: 19.9 µM
"LK-RB1-11 (antibody, human IgG4 S228P, kappa, V domains shown, Anti-LILRB1 antibody) VH: QVTLKESGPGILQPSQTLSLTCSFSGFSLKTSGMSVGWIRQPSGKGLEWLAHIWWNDDKYYNPVLKGRLTISKDTSNNLVFLKIASVVSTDTATYYCVRYGNSHGYWYFDVWGTGTTVTVSS VL: NIVLTQSPASLAVSLGQRATISCRASESVDSYGNNFIHWYQQKPGQPPKVLIYYASNLEAGVPARFSGSGSRTDFTLTIDPVEAEDAATYYCQQNNEDPYTFGGGTKLEIER",–,–,–,–,EC50 [5]: 0.00078 µM
"LK-RBi-06 (bispecific antibody, human IgG4 S228P, kappa) heavy: not shown light: DIQMTQSPSTLSASVGDRVTITCHASQSVDFWLNWYQQKPGKAPKLLISKASNLHTGVPSRFSGSGSGTEFTLTISSLQPDDFATYYCQQGQSYPLTFGQGTKLEIKRTVAAPSVFIFPPSDEQLKSGTASVVCLLNNFYPREAKVQWKVDNALQSGNSQESVTEQDSKDSTYSLSSTLTLSKADYEKHKVYACEVTHQGLSSPVTKSFNRGEC",1.31,0.73,1.47,0.57,–
"LK-RBi-07 (bispecific antibody, human IgG4 S228P, kappa) heavy: not shown light: DIQMTQSPSTLSASVGDRVTITCHASQSVDFWLNWYQQKPGKAPKLLISKASNLHTGVPSRFSGSGSGTEFTLTISSLQPDDFATYYCQQGQSYPLTFGQGTKLEIKRTVAAPSVFIFPPSDEQLKSGTASVVCLLNNFYPREAKVQWKVDNALQSGNSQESVTEQDSKDSTYSLSSTLTLSKADYEKHKVYACEVTHQGLSSPVTKSFNRGEC",1.22,1.58,2.51,0.97,–
"LK-RB1-9 (antibody, human IgG4 S228P, kappa, V domains shown, Anti-LILRB1 antibody from mouse hybridoma; parental antibody of LK-RB1-9.h1 to h3) VH: QIQLVQSGPELKKPGETVKISCTASGYTFTTYGMSWVKQAPGKGLKWMGWINTYSGVPTYADDFKGRFAFSLETSASTAYLEINNVKNEDTATYFCARRRRTYHGYLCFDYWGQGTTLTVSS VL: DIQMTQSPVSLSASVGETVTITCETSENIYGALNWYQRKQGKSPQLLIYGATNLADGMSSRFSGSGSGRQYSLEISSLHPDDVASYYCQNVLNTPWTFGGGTKLEIKR",–,–,–,–,Kd (human LILRA2-his): 13.3 nM; koff (human LILRA2-his): 0.00286 s⁻¹; kon (human LILRA2-his): 215000 M⁻¹ s⁻¹; Kd (human LILRB1-his): 0.836 nM; koff (human LILRB1-his): 0.000255 s⁻¹; kon (human LILRB1-his): 305000 M⁻¹ s⁻¹
"LK-RBi-09 (bispecific antibody, human IgG4 S228P, kappa) heavy: not shown light: DIQMTQSPSSLSASVGDRVTITCETSENIYGALNWYQQKPGKAPKLLIYGATNLAEGVPSRFSGSGSGTDFTFTISSLQPEDIATYYCQNVLNTPWTFGGGTKLEIKGGSGGGGSGEIVLTQSPATLSLSPGERATLSCRASQSISDYLHWYQQKPGQAPRLLIKYASQSISGIPSRFSGSGSGTDFTLTISSLEPEDVAVYYCQNGHSFPYTFGGGTKLEIKRTVAAPSVFIFPPSDEQLKSGTASVVCLLNNFYPREAKVQWKVDNALQSGNSQESVTEQDSKDSTYSLSSTLTLSKADYEKHKVYACEVTHQGLSSPVTKSFNRGEC",1.03,1.29,1.17,0.43,–
